One series relates to McLeod barley embryos. Briefly: Germination of bombarded mature embryos, McLeod line. It counts as in vivo. The conditions noted are these: in the presence of ABAP1. As for the experimental part:
(§1) To determine whether or not ABAP1 affects seed germination, mature embryo from two different barley lines (McLeod and Harrington) were bombarded with sense and anti-sense orientation of ABAP1. The embryos were subjected to different ABA treatments and the germination rate, plumule length, radical length and root numbers per embryo were measured for up to four days after bombardment.

The next series relates to α-amylase activity. Nature of the series: α-amylase activity in bombarded barley aleurones. It counts as cell-based. Conditions: em and ABAP1 bombarded aleurones.
Series [1] deals with Harrington barley embryos. Briefly: Germination and growth of bombarded mature embryos, Harrington line. It counts as in vivo. As for the experimental part: as §1
Another series concerns em promoter. Briefly: em promoter driven GUS expression in bombarded barley aleurone layers. It counts as cell-based. The conditions noted are these: em plus ABAP1 bombardment, without ABA treatment. From the text:
The studies examined the effector and reporter constructs, at a 1:1 ratio, introduced to barley aleurone layers by gold particle bombardment. The bombardment consisted of two trials: the first trial was a bombardment of em promoter only; the second trial was a bombardment of em promoters treated with ABAP1.

Protocol for α-amylase activity: A similar experiment was conducted with α-amylase activity to confirm if ABAP1 is involved in another signal transduction pathway. α-amylase activity was measured after ABA, PBI51 and GA were added to the em and ADAPT bombarded barley aleurones.

B1: ABAP1: barley ABA-binding protein, 472 amino acids, SEQ ID NO: 10; expressed from effector construct in bombardment tests (protein)
chain: MNSLSGTYIMRGCEQPLIVRFADPKRPRPGESRGGPAFGGPGVSSRSDAALVIRPTANLDEQIGRHMPPDTWRPSSPSSMAPHQFNNFGSDNSMGLMGGPVTSAADNVAFRPQLFHGNGSLSSQTAVPASSHMGINPSLSQGHHLGGPQIPPLQKPTGLQQNFPVQLQNAQQGQLHASQSLGPGSFGQNIPTMQLPGQLPVSQPLTQQNASACALQAPSAVQSNPMQSVPGQQQLPSNLTPQMLQQPVQQMLSQAPQLLLQQQQAAMQSSYQSSQQTIFQLQQQLQLMQQQQHQQQPNLNQQPHTQVPKQQGQPVQSNAPGAPAAMMTTNINAIPQQVNSPAVSLTCNWTEHTSPEGFKYYYNSITRESKWEKPEEYVLYEQQQQQQDHQKLILLQQHQQKLVAQQLQSPPQAQTIPSMQSMQHHPQSQQGHNQMQMKQQDLNYNQLQPTGTIDPSRIQQGIQAAQERSWKS
modifications: Hordeum, vulgare subsp. vulgare
Turning to B1, the germination rate result with McLeod barley embryos was “significantly lower”. Besides, in the series with α-amylase activity, the α-amylase activity result is reported as “reduction”. Besides, in series [1], the germination rates result is listed as “did not seem to be affected”. For the same molecule, the “plumule and radical growth” value in series [1] (in the presence of ABAP1) is “significantly retarded”. Besides, the “GUS activity versus em alone” value in the series with em promoter was “twice fold”.
